From patent publication US20250270341A1 (Alector, published 2025)
Substitutions are numbered along the chain they refer to.

T1: huCD98hc ECD Avi-His (human, UniProt P08195 105-529)
T1 construct: biotinylated on the Avi tag where captured on streptavidin; also called Human CD98-AVI-His; Human CD98hc-AVI-His
T1 sequence: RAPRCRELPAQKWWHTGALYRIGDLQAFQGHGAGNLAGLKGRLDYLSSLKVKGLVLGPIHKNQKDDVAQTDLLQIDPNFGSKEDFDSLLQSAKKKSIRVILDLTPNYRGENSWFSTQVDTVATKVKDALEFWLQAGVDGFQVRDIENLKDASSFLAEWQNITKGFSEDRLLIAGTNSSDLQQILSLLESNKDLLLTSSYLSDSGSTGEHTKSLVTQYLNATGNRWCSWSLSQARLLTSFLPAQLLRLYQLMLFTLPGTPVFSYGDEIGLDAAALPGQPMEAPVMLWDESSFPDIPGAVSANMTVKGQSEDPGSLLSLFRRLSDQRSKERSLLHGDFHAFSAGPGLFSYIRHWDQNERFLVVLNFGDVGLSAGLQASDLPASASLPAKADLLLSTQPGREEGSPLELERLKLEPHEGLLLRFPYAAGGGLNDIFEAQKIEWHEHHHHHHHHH

T2: muCD98hc ECD Avi-His (mouse, UniProt P10852 100-526)
T2 construct: biotinylated on the Avi tag where captured on streptavidin; also called Mouse CD98-AVI-His; Mouse CD98hc-AVI-His
T2 sequence: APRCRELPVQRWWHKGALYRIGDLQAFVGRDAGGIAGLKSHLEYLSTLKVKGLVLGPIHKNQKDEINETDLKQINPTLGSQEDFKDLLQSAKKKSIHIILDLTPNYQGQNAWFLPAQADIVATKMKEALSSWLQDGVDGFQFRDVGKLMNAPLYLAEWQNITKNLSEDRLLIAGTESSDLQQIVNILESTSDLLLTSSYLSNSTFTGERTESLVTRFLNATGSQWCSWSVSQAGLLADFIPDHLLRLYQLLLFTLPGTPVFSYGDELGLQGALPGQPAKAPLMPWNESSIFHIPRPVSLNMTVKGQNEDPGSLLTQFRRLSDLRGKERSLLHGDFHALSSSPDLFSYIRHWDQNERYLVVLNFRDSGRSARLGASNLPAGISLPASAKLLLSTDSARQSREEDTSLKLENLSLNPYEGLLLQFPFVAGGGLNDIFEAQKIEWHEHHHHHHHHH

T3: Cyno CD98hc ECD Avi-His (cynomolgus macaque, UniProt P08195 105-529 (human entry))
T3 construct: biotinylated on the Avi tag where captured on streptavidin; also called Cyno CD98-AVI-His; Cyno CD98hc-AVI-His
T3 chain: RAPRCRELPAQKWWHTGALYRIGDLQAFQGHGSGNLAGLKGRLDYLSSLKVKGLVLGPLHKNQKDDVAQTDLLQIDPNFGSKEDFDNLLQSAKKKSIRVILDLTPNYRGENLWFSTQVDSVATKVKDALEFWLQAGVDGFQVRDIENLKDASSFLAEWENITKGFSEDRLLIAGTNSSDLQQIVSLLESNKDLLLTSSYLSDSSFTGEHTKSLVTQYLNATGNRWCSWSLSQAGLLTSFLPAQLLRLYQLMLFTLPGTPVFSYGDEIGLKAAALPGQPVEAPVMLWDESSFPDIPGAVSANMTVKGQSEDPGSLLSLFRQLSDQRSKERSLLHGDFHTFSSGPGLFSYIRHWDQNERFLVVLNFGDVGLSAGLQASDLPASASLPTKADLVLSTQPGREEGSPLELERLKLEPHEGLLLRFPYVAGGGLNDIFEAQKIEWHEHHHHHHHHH

B1: CD98HC.03.031 (antibody, V domains shown)
VH: QVQLQQSGAELVRPGVSVKISCKASGYTFTDYAMHWVKQSHAKSLEWIGVISTYYGDTTYNQKFKDKATMTVDKSSSTAYLELARLTSEDSAIYYCARVWLLSYAMDNWGQGTSVTVSS
VL: DIVMTQSQRFMSTSVGDGVRITCKASQNVRTAVAWYQQKPGQSPKALINLAPNRHTGVPDRFTARGSGTDFTLTISNVQSEDLADYFCLQHWNYPLTFGAGTKLELK
notes: hybridoma IgG
B2: CD98HC.04.010 (antibody, V domains shown)
VH: QVQLQQSGAELMKPGASVKISCKATGYTFSTYWIEWVKQRPGHGLEWIGEILPGSGTTTYNEKFKGKATFTADTSSNTAYMQLSSLTSEDSAVYYCARRTVYYRYEGIDYWGQGTTLTVSS
VL: QIVLTQSPAIMSASPGEKVTITCSASSSVSYMFWFQQRPGTSPKLWIYTTSNLASGVPARFSGSGSGTSYSLTISRMEAEDAATYYCQQKNNYPFTFGSGTKLEIK
notes: hybridoma IgG
B3: CD98HC.04.009 (antibody, V domains shown)
VH: QVQLKESGPGLVAPSQSLSITCTVSGFSLTSYGVHWVRQPPGKGLEWLGVIWAGGSTYYNSALMSRLSISKDNAKSQVLLKMSSLQTDDTAMYYCARDNYGGVYLDVWGAGTTVTVSS
VL: ENVLTQSPASMSASPGEKVTMTCRASSSVSSSYLHWYQQKSGASPKLWIYSTSNLASGVPARFSGSGSGTSYSLTISSVEAEDAATYYCQQYSGYPLTFGSGTKLEIK
notes: hybridoma IgG
B4: CD98HC.04.006 (antibody, V domains shown)
VH: EVNLVESGGDLVQPGGSLRLSCATSGFTFTDYFMSWVRQPPGKALEWLGFIRNKAYGYTTEYSASVKGRFTISRDNSQSIFYLQMNTLRLEDSATYYCARGPFISTAPFAYWGQGTLVTVSA
VL: DIVMSQSPSSLAVSVGETVTMSCKSSQSLLYSSNQKNYLAWYQQKPGQSPKLLIYWGSTRESGVPDRFTGSGSGTDFTLTISSVKAEDLAVYYCQHYYGYPWTFGGGTKLEIK
notes: hybridoma IgG
B5: CD98HC.04.011 (antibody, V domains shown)
VH: DVQLQESGPDLVKPSQSLSLTCSVTVYSFTSVYSWHWIRQFPGNKLEWMGYIHDSGTTNYNPSLKSRISVTRDTSKNQFFLQLNSVTTEDTATYYCARGRPYGYDGFAYWGQGTLVTVSA
VL: DIQMTQSSSYLSVSLGDRVTITCKASDHINNWLAWYQQKPGNAPRLLITGAVNLETGVPSRFSGSGSGKDYTLSITSLQTEDVATYYCQQYWSIPRTFGGGTNLEIK
notes: hybridoma IgG
B6: CD98HC.03.002 (antibody, V domains shown)
VH: DVQLVESGGGLVQPGGSRKLSCAASGFTFSTFGMHWVRQAPEKGLEWVAYISGGSTNIYYADTVKGRFTISRDNPKNTLFLQMTSLRSEDTAMYYCARETTLLATNFDYWGQGTTLTVSS
VL: DIQMTQTTSSLSASLGDRVTISCRASQDISNYLNWYQQKPDGTVKLLIYYTSRLHSGVPSRFSGSGSGTDYSLTISNLEQEDIATYFCQQGSTLPRTFGGGTKLEIK
notes: hybridoma IgG
B7: CD98HC.04.003 (antibody, V domains shown)
VH: QVQLQQSGAELAKPGASLKMSCKASGYTFTDYYIHWVKQRPGQDLEWIGYINPNSAYTDSNQKFKDKATLTADKSSNTAYMQLSSLTSEDSAVYYCARKGHFYAPSFAYWGQGTLVTVSA
VL: B6 VL with T69A, E79Q, S92D, R96Y, K107E
notes: hybridoma IgG

Target: T1, huCD98hc ECD Avi-His
Assay: ELISA, hybridoma supernatant
Description: (§1) Briefly, 96-well polystyrene plates were coated with 5 μg/ml of streptavidin (Thermo Fisher, Cat #PI21125) in coating buffer (0.05M carbonate buffer, pH 9.6, Sigma, Cat #C3041) overnight at 4° C. Coated plates were then blocked with ELISA diluent (PBS+0.5% BSA+0.05% Tween20) for one hour. Blocking buffer was removed and human, cyno, or mouse Avi-His-tagged CD98hc and Avi-His-tagged human TfR polypeptides were added at 1 μg/ml in ELISA diluent and captured for 1 hour at room temperature. After washing three times with 300 μl of PBST (PBS+0.05% Tween20, Thermo 28352), the hybridoma cell culture supernatants or 1 μg/ml of commercially available purified mouse anti-human CD98hc monoclonal antibody (Sigma Aldrich, Cat #SAB 4700503) and rat anti-mouse CD98hc antibody (Bio-Rad Laboratories, Hercules, CA, Cat #MCA2684) were added (50 μl/well) to each well. After 30 minutes of incubation at room temperature, the plates were washed three times with 300 μl of PBST. […] After a final set of washes (3×300 μl in PBST), 50 μl/well of BioFx TMB substrate (Surmodics, Eden Praire, MN, Cat #TMBW-1000-01) was added to the wells. The reaction was then quenched after 5-10 mins with 50 μl/well of 2N sulfuric acid. The plates were read for absorbance at 450 nm on a SpectraMax M5 (Molecular Devices, Sunnyvale, CA) using SoftMax Pro software.

Binder	OD450
B1	1.06
B2	1.48
B3	0.991
B4	1.24
B5	1.16
B6	1.53
B7	1.6

Target: T4, Human TfR-AVI-His (control) (human, UniProt P02786 89-760)
T4 construct: control protein; also called Avi-His-tagged human TfR; human transferrin receptor
Assay: ELISA, hybridoma supernatant
Description: as §1

T4 sequence (P02786 89-760 limits assumed): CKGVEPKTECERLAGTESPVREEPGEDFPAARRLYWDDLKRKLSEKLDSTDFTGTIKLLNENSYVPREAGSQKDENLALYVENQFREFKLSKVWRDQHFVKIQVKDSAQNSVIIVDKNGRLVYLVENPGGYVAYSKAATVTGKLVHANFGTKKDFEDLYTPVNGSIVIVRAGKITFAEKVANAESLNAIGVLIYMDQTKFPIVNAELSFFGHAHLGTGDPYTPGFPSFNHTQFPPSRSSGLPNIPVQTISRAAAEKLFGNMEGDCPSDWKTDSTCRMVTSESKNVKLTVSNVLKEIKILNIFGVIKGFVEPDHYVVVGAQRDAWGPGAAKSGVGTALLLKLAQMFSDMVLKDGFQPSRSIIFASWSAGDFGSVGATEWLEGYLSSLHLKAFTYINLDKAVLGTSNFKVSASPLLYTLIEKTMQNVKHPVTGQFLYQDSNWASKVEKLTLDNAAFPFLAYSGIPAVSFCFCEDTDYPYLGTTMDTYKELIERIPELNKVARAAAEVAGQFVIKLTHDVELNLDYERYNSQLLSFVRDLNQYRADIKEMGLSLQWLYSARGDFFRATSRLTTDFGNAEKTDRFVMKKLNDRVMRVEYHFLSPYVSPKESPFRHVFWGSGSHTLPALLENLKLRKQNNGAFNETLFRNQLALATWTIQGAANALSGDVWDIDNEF

Binder	OD450
B1	0.0873
B2	0.102
B3	0.0743
B4	0.129
B5	0.0705
B6	0.073
B7	0.0601

Target: T2, muCD98hc ECD Avi-His
Assay: ELISA, hybridoma supernatant
Description: as §1

Binder	OD450
B1	0.0843
B2	0.0907
B3	0.0688
B4	0.13
B5	0.067
B6	0.0802
B7	0.0565

Target: T3, Cyno CD98hc ECD Avi-His
Assay: ELISA, hybridoma supernatant
Description: as §1

Binder	OD450
B1	1.48
B2	1.97
B3	1.42
B4	1.71
B5	1.76
B6	1.69
B7	2.05
